Reference: article PMC2702006 (The Febs Journal, 2009)

Tests used:
[1] = target: the molecule itself; assay: cell-based or functional assay
cross-linking = target: the molecule itself; assay: cross-linking
FRET or BRET = target: the molecule itself; assay: FRET or BRET

Protein	binding result (cross-linking)	also measured
human Hsp90β L24R (natural protein) not shown	–	ATPase activity relative to wild-type Hsp90β [1]: 6.2 % activity relative to wild-type Hsp90β
human Hsp90β T110I (natural protein) not shown	binds	–
human Hsp90β A116N (natural protein) not shown	binds	–
pyrene-labelled human Hsp90β E20C-C366A-A116N (natural protein, N-(1-pyrene)-maleimide label at position 20 (E20C)) not shown	–	binding result (FRET or BRET): binds
